Experiment [1] has as its target human glucagon-like peptide-1 receptor (human, UniProt P43220). The experiment in a line: cell-based or functional assay.
The target of experiment [2] is T1, human glucose-dependent insulinotropic peptide receptor (human, UniProt P48546).
T1 sequence: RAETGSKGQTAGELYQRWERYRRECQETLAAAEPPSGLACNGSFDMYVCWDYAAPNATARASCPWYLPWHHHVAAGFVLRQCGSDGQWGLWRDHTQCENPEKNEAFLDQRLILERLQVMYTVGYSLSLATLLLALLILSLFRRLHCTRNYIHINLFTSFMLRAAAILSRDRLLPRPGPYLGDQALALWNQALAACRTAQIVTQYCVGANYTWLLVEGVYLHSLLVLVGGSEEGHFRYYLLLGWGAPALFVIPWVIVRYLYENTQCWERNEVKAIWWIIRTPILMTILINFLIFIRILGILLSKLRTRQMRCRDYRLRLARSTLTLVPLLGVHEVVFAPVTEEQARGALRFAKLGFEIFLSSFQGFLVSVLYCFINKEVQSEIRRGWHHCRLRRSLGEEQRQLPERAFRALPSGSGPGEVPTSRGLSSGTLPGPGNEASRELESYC
As to the kind of experiment: cell-based or functional assay.

The text below walks through data of patent publication US20220168396A1, “MULTI-RECEPTOR AGONIST AND MEDICAL USE THEREOF” (published 2022).

Square brackets hold non-standard residues; d marks the D form. Ends that are not written are not given here. Aib = CC(C)(N)C(=O)O A value given as a limit tells only on which side of the number the result lay.

B1: Compound No. 65 (peptide)
peptide: Y[Aib]EGTFTSDYSIYLEKEAAKEFIQWLLAGGPSSGAPPPS-NH2
modifications: N-terminus assumed
SMILES: CC[C@H](C)[C@H](NC(=O)[C@H](Cc1ccccc1)NC(=O)[C@H](CCC(=O)O)NC(=O)[C@H](CCCCN)NC(=O)[C@H](C)NC(=O)[C@H](C)NC(=O)[C@H](CCC(=O)O)NC(=O)[C@H](CCCCN)NC(=O)[C@H](CCC(=O)O)NC(=O)[C@H](CC(C)C)NC(=O)[C@H](Cc1ccc(O)cc1)NC(=O)[C@@H](NC(=O)[C@H](CO)NC(=O)[C@H](Cc1ccc(O)cc1)NC(=O)[C@H](CC(=O)O)NC(=O)[C@H](CO)NC(=O)[C@@H](NC(=O)[C@H](Cc1ccccc1)NC(=O)[C@@H](NC(=O)CNC(=O)[C@H](CCC(=O)O)NC(=O)C(C)(C)NC(=O)[C@@H](N)Cc1ccc(O)cc1)[C@@H](C)O)[C@@H](C)O)[C@@H](C)CC)C(=O)N[C@@H](CCC(N)=O)C(=O)N[C@@H](Cc1c[nH]c2ccccc12)C(=O)N[C@@H](CC(C)C)C(=O)N[C@@H](CC(C)C)C(=O)N[C@@H](C)C(=O)NCC(=O)NCC(=O)N1CCC[C@H]1C(=O)N[C@@H](CO)C(=O)N[C@@H](CO)C(=O)NCC(=O)N[C@@H](C)C(=O)N1CCC[C@H]1C(=O)N1CCC[C@H]1C(=O)N1CCC[C@H]1C(=O)N[C@@H](CO)C(N)=O
As to B1, the “Activity for human GLP-1R (EC50 nM), cAMP HTRF” value (from here on “Activity for human GLP-1R”) in experiment [1] stood at 0.013 nM. Further, in experiment [2], the “Activity for human GIPR (EC50 nM), cAMP HTRF” value (from here on “Activity for human GIPR”) turned out to be 0.027 nM.

B2: Compound No. 63 (peptide)
peptide: Y[Aib]EGTFTSDYSIYLEKEAAKEFINWLLAGGPSSGAPPPS-NH2
modifications: N-terminus assumed
SMILES: CC[C@H](C)[C@H](NC(=O)[C@H](Cc1ccccc1)NC(=O)[C@H](CCC(=O)O)NC(=O)[C@H](CCCCN)NC(=O)[C@H](C)NC(=O)[C@H](C)NC(=O)[C@H](CCC(=O)O)NC(=O)[C@H](CCCCN)NC(=O)[C@H](CCC(=O)O)NC(=O)[C@H](CC(C)C)NC(=O)[C@H](Cc1ccc(O)cc1)NC(=O)[C@@H](NC(=O)[C@H](CO)NC(=O)[C@H](Cc1ccc(O)cc1)NC(=O)[C@H](CC(=O)O)NC(=O)[C@H](CO)NC(=O)[C@@H](NC(=O)[C@H](Cc1ccccc1)NC(=O)[C@@H](NC(=O)CNC(=O)[C@H](CCC(=O)O)NC(=O)C(C)(C)NC(=O)[C@@H](N)Cc1ccc(O)cc1)[C@@H](C)O)[C@@H](C)O)[C@@H](C)CC)C(=O)N[C@@H](CC(N)=O)C(=O)N[C@@H](Cc1c[nH]c2ccccc12)C(=O)N[C@@H](CC(C)C)C(=O)N[C@@H](CC(C)C)C(=O)N[C@@H](C)C(=O)NCC(=O)NCC(=O)N1CCC[C@H]1C(=O)N[C@@H](CO)C(=O)N[C@@H](CO)C(=O)NCC(=O)N[C@@H](C)C(=O)N1CCC[C@H]1C(=O)N1CCC[C@H]1C(=O)N1CCC[C@H]1C(=O)N[C@@H](CO)C(N)=O
Consider B2, for which the “Activity for human GLP-1R” value in experiment [1] is 0.01 nM. Further, the “Activity for human GIPR” value in experiment [2] was 0.02 nM.

B3: Compound No. 23 (peptide)
peptide: Y[Aib]EGTFTSDYSIYLEKEAAKEFVNWLLAQKPSSGAPPPSK-NH2
modifications: N-terminus assumed
SMILES: CC[C@H](C)[C@H](NC(=O)[C@H](CO)NC(=O)[C@H](Cc1ccc(O)cc1)NC(=O)[C@H](CC(=O)O)NC(=O)[C@H](CO)NC(=O)[C@@H](NC(=O)[C@H](Cc1ccccc1)NC(=O)[C@@H](NC(=O)CNC(=O)[C@H](CCC(=O)O)NC(=O)C(C)(C)NC(=O)[C@@H](N)Cc1ccc(O)cc1)[C@@H](C)O)[C@@H](C)O)C(=O)N[C@@H](Cc1ccc(O)cc1)C(=O)N[C@@H](CC(C)C)C(=O)N[C@@H](CCC(=O)O)C(=O)N[C@@H](CCCCN)C(=O)N[C@@H](CCC(=O)O)C(=O)N[C@@H](C)C(=O)N[C@@H](C)C(=O)N[C@@H](CCCCN)C(=O)N[C@@H](CCC(=O)O)C(=O)N[C@@H](Cc1ccccc1)C(=O)N[C@H](C(=O)N[C@@H](CC(N)=O)C(=O)N[C@@H](Cc1c[nH]c2ccccc12)C(=O)N[C@@H](CC(C)C)C(=O)N[C@@H](CC(C)C)C(=O)N[C@@H](C)C(=O)N[C@@H](CCC(N)=O)C(=O)N[C@@H](CCCCN)C(=O)N1CCC[C@H]1C(=O)N[C@@H](CO)C(=O)N[C@@H](CO)C(=O)NCC(=O)N[C@@H](C)C(=O)N1CCC[C@H]1C(=O)N1CCC[C@H]1C(=O)N1CCC[C@H]1C(=O)N[C@@H](CO)C(=O)N[C@@H](CCCCN)C(N)=O)C(C)C
In the case of B3, in experiment [1], the “Activity for human GLP-1R” value is 0.059 nM. In addition, the “Activity for human GIPR” value in experiment [2] was determined as 0.02 nM.

B4: Compound No. 24 (peptide)
peptide: Y[Aib]EGTFTSDYSIYLEKIAAQEFVNWLLAQKPSSGAPPPSK-NH2
modifications: N-terminus assumed
SMILES: CC[C@H](C)[C@H](NC(=O)[C@H](CCCCN)NC(=O)[C@H](CCC(=O)O)NC(=O)[C@H](CC(C)C)NC(=O)[C@H](Cc1ccc(O)cc1)NC(=O)[C@@H](NC(=O)[C@H](CO)NC(=O)[C@H](Cc1ccc(O)cc1)NC(=O)[C@H](CC(=O)O)NC(=O)[C@H](CO)NC(=O)[C@@H](NC(=O)[C@H](Cc1ccccc1)NC(=O)[C@@H](NC(=O)CNC(=O)[C@H](CCC(=O)O)NC(=O)C(C)(C)NC(=O)[C@@H](N)Cc1ccc(O)cc1)[C@@H](C)O)[C@@H](C)O)[C@@H](C)CC)C(=O)N[C@@H](C)C(=O)N[C@@H](C)C(=O)N[C@@H](CCC(N)=O)C(=O)N[C@@H](CCC(=O)O)C(=O)N[C@@H](Cc1ccccc1)C(=O)N[C@H](C(=O)N[C@@H](CC(N)=O)C(=O)N[C@@H](Cc1c[nH]c2ccccc12)C(=O)N[C@@H](CC(C)C)C(=O)N[C@@H](CC(C)C)C(=O)N[C@@H](C)C(=O)N[C@@H](CCC(N)=O)C(=O)N[C@@H](CCCCN)C(=O)N1CCC[C@H]1C(=O)N[C@@H](CO)C(=O)N[C@@H](CO)C(=O)NCC(=O)N[C@@H](C)C(=O)N1CCC[C@H]1C(=O)N1CCC[C@H]1C(=O)N1CCC[C@H]1C(=O)N[C@@H](CO)C(=O)N[C@@H](CCCCN)C(N)=O)C(C)C
As for B4, in experiment [1], the “Activity for human GLP-1R” value was 0.083 nM. Further, the “Activity for human GIPR” value in experiment [2] worked out at 0.008 nM.

B5: Compound No. 1 (peptide)
peptide: H[Aib]EGTFTSDVSSYLEEEAAKEFIAWLVRGGPSSGAPPPSK-NH2
modifications: N-terminus assumed
SMILES: CC[C@H](C)[C@H](NC(=O)[C@H](Cc1ccccc1)NC(=O)[C@H](CCC(=O)O)NC(=O)[C@H](CCCCN)NC(=O)[C@H](C)NC(=O)[C@H](C)NC(=O)[C@H](CCC(=O)O)NC(=O)[C@H](CCC(=O)O)NC(=O)[C@H](CCC(=O)O)NC(=O)[C@H](CC(C)C)NC(=O)[C@H](Cc1ccc(O)cc1)NC(=O)[C@H](CO)NC(=O)[C@H](CO)NC(=O)[C@@H](NC(=O)[C@H](CC(=O)O)NC(=O)[C@H](CO)NC(=O)[C@@H](NC(=O)[C@H](Cc1ccccc1)NC(=O)[C@@H](NC(=O)CNC(=O)[C@H](CCC(=O)O)NC(=O)C(C)(C)NC(=O)[C@@H](N)Cc1c[nH]cn1)[C@@H](C)O)[C@@H](C)O)C(C)C)C(=O)N[C@@H](C)C(=O)N[C@@H](Cc1c[nH]c2ccccc12)C(=O)N[C@@H](CC(C)C)C(=O)N[C@H](C(=O)N[C@@H](CCCNC(=N)N)C(=O)NCC(=O)NCC(=O)N1CCC[C@H]1C(=O)N[C@@H](CO)C(=O)N[C@@H](CO)C(=O)NCC(=O)N[C@@H](C)C(=O)N1CCC[C@H]1C(=O)N1CCC[C@H]1C(=O)N1CCC[C@H]1C(=O)N[C@@H](CO)C(=O)N[C@@H](CCCCN)C(N)=O)C(C)C
Consider B5, for which, in experiment [1], the “Activity for human GLP-1R” value is 0.005 nM. Further, in experiment [2], the “Activity for human GIPR” value is > 10 nM.

B6: Compound No. 64 (peptide)
peptide: Y[Aib]EGTFTSDYSIYLEKEAAKEFVQWLLAGGPSSGAPPPS-NH2
modifications: N-terminus assumed
SMILES: CC[C@H](C)[C@H](NC(=O)[C@H](CO)NC(=O)[C@H](Cc1ccc(O)cc1)NC(=O)[C@H](CC(=O)O)NC(=O)[C@H](CO)NC(=O)[C@@H](NC(=O)[C@H](Cc1ccccc1)NC(=O)[C@@H](NC(=O)CNC(=O)[C@H](CCC(=O)O)NC(=O)C(C)(C)NC(=O)[C@@H](N)Cc1ccc(O)cc1)[C@@H](C)O)[C@@H](C)O)C(=O)N[C@@H](Cc1ccc(O)cc1)C(=O)N[C@@H](CC(C)C)C(=O)N[C@@H](CCC(=O)O)C(=O)N[C@@H](CCCCN)C(=O)N[C@@H](CCC(=O)O)C(=O)N[C@@H](C)C(=O)N[C@@H](C)C(=O)N[C@@H](CCCCN)C(=O)N[C@@H](CCC(=O)O)C(=O)N[C@@H](Cc1ccccc1)C(=O)N[C@H](C(=O)N[C@@H](CCC(N)=O)C(=O)N[C@@H](Cc1c[nH]c2ccccc12)C(=O)N[C@@H](CC(C)C)C(=O)N[C@@H](CC(C)C)C(=O)N[C@@H](C)C(=O)NCC(=O)NCC(=O)N1CCC[C@H]1C(=O)N[C@@H](CO)C(=O)N[C@@H](CO)C(=O)NCC(=O)N[C@@H](C)C(=O)N1CCC[C@H]1C(=O)N1CCC[C@H]1C(=O)N1CCC[C@H]1C(=O)N[C@@H](CO)C(N)=O)C(C)C
For B6, in experiment [1], the “Activity for human GLP-1R” value turned out to be 0.02 nM. In experiment [2], the “Activity for human GIPR” value was 0.033 nM.
